Paper PMC2699145 (The Journal of Cell Biology, 2009)
One block for each binder: values may come before it.

B2: MBP-tagged RIL (natural protein, human, UniProt P50479 1-330, looked up)
chain: MPHSVTLRGPSPWGFRLVGGRDFSAPLTISRVHAGSKAALAALCPGDLIQAINGESTELMTHLEAQNRIKGCHDHLTLSVSRPEGRSWPSAPDDSKAQAHRIHIDPEIQDGSPTTSRRPSGTGTGPEDGRPSLGSPYGQPPRFPVPHNGSSEATLPAQMSTLHVSPPPSADPARGLPRSRDCRVDLGSEVYRMLREPAEPVAAEPKQSGSFRYLQGMLEAGEGGDWPGPGGPRNLKPTASKLGAPLSGLQGLPECTRCGHGIVGTIVKARDKLYHPECFMCSDCGLNLKQRGYFFLDERLYCESHAKARVKPPEGYDVVAVYPNAKVELV

Tests used:
Experiment in all cases: pull-down
[1] = target: pY419 Src (MBP-Src phosphorylated at Y419) (UniProt P12931 1-536, phosphotyrosine at 419)
[2] = target: maltose-binding protein (MBP)-tagged Src protein (UniProt P12931 1-536)
[3] = target: GST-tagged Src (UniProt P12931 1-536)
[4] = target: B2

- binding result [1]: binds
- binding result [2]: binds
B1: GST-RIL (reversion-induced LIM) (natural protein, human, UniProt P50479 1-330, looked up)
chain: MPHSVTLRGPSPWGFRLVGGRDFSAPLTISRVHAGSKAALAALCPGDLIQAINGESTELMTHLEAQNRIKGCHDHLTLSVSRPEGRSWPSAPDDSKAQAHRIHIDPEIQDGSPTTSRRPSGTGTGPEDGRPSLGSPYGQPPRFPVPHNGSSEATLPAQMSTLHVSPPPSADPARGLPRSRDCRVDLGSEVYRMLREPAEPVAAEPKQSGSFRYLQGMLEAGEGGDWPGPGGPRNLKPTASKLGAPLSGLQGLPECTRCGHGIVGTIVKARDKLYHPECFMCSDCGLNLKQRGYFFLDERLYCESHAKARVKPPEGYDVVAVYPNAKVELV

Binder: B2
- binding result [3]: binds

- binding result [4]: binds
B3: GST fusion protein containing the kinase domain of Src (residues 249-536) (domain or fragment, UniProt P12931 249-536, looked up)
chain: PTSKPQTQGLAKDAWEIPRESLRLEVKLGQGCFGEVWMGTWNGTTRVAIKTLKPGTMSPEAFLQEAQVMKKLRHEKLVQLYAVVSEEPIYIVTEYMSKGSLLDFLKGETGKYLRLPQLVDMAAQIASGMAYVERMNYVHRDLRAANILVGENLVCKVADFGLARLIEDNEYTARQGAKFPIKWTAPEAALYGRFTIKSDVWSFGILLTELTTKGRVPYPGMVNREVLDQVERGYRMPCPPECPESLHDLMCQCWRKEPEERPTFEYLQAFLEDYFTSTEPQYQPGENL
